From paper PMC314469, “Protein Interaction Networks by Proteome Peptide Scanning” (PLoS Biology, 2004) come the findings set out here.

The labels stand for the following.
T1: Rvs167 SH3 (RV167_YEAST), P39743
T1 chain: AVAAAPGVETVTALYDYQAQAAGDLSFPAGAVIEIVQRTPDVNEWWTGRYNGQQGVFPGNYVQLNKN

T2: Boi1 SH3 (BOI1_YEAST), P38041
T2 chain: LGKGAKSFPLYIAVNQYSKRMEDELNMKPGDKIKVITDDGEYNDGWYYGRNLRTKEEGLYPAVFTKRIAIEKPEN

T3: Yfr024 SH3 (LSB3_YEAST), P43603
T3 chain: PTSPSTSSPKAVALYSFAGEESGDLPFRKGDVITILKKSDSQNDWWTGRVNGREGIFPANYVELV

T4: Myo5 SH3 (MYO5_YEAST), Q04439
T4 chain: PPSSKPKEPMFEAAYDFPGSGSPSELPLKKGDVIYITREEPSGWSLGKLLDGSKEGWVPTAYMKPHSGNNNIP

T5: Boi2 SH3 (BOI2_YEAST), P39969
T5 chain: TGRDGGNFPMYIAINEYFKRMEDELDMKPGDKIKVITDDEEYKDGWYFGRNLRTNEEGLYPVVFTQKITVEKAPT

T6: Yhr016c SH3 (YSC84_YEAST), P32793
T6 chain: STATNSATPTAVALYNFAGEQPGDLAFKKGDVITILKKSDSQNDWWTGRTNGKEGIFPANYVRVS

In the first experiment the target is Sho1 SH3 (SHO1_YEAST), P40073. In words: SPOT array.
Sequence of Sho1 SH3 (SHO1_YEAST), P40073 (P40073 295-366): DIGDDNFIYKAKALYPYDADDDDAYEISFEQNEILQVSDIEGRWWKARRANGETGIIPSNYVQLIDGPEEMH
KQLMKNLPKIPLLN [YDR228C 355-368] yielded a normalised SPOT signal, Boehringer light units (BLU); mean over the file's lines of this peptide of 36400.
Same read-out and setting: the same measure for KMSAKNTPKHPVDI [YPL082C 209-222]: 102; for KNLLREIPQVPAFQ [YLR077W 141-154]: 84.8; for KPAGRPIPPAPTHY [YGR058W 101-114]: 115.
KNILKVSPVLPSIL [YMR247C 301-314] came in with a normalised SPOT signal, Boehringer light units (BLU); mean over the file's lines of this peptide of 57.8.
Still for that read-out and setting: the same measure for KNLKKYDPEDPNRR [YPL093W 383-396]: 76.6; for KLYYRHRPQKPVRT [YOL164W 144-157]: 126.

Another experiment deals with T1, Rvs167 SH3 (RV167_YEAST), P39743. The experiment can be described thus: SPOT array.
KQLMKNLPKIPLLN [YDR228C 355-368] came in with a normalised SPOT signal, Boehringer light units (BLU); mean over the file's lines of this peptide of 130.
Still for that read-out and setting: for KMSAKNTPKHPVDI [YPL082C 209-222] the value was 301; for KNLLREIPQVPAFQ [YLR077W 141-154], 2030; for KPAGRPIPPAPTHY [YGR058W 101-114], 2260.
The molecule KNILKVSPVLPSIL [YMR247C 301-314] had a normalised SPOT signal, Boehringer light units (BLU); mean over the file's lines of this peptide of 59.5.
Still for that read-out and setting: for KNLKKYDPEDPNRR [YPL093W 383-396] the value was 121.
On the same count and under the same terms, the same measure for KLYYRHRPQKPVRT [YOL164W 144-157]: 153.

The next experiment addresses T2, Boi1 SH3 (BOI1_YEAST), P38041. The experiment can be described thus: SPOT array.
Take KQLMKNLPKIPLLN [YDR228C 355-368]: the normalised SPOT signal, Boehringer light units (BLU); mean over the file's lines of this peptide turned out to be 594.
On the same count and under the same terms, the same measure for KMSAKNTPKHPVDI [YPL082C 209-222]: 1220; for KNLLREIPQVPAFQ [YLR077W 141-154]: 196; for KPAGRPIPPAPTHY [YGR058W 101-114]: 90.4.
Take KNILKVSPVLPSIL [YMR247C 301-314]: the normalised SPOT signal, Boehringer light units (BLU); mean over the file's lines of this peptide was found to be 304.
As to KNLKKYDPEDPNRR [YPL093W 383-396], the normalised SPOT signal, Boehringer light units (BLU); mean over the file's lines of this peptide is 656.
Take KLYYRHRPQKPVRT [YOL164W 144-157]: the normalised SPOT signal, Boehringer light units (BLU); mean over the file's lines of this peptide turned out to be 599.

For another experiment, the target named is T3, Yfr024 SH3 (LSB3_YEAST), P43603. The experiment can be described thus: SPOT array.
With KQLMKNLPKIPLLN [YDR228C 355-368], the normalised SPOT signal, Boehringer light units (BLU); mean over the file's lines of this peptide was 794.
On the same count and under the same terms, the same measure for KMSAKNTPKHPVDI [YPL082C 209-222]: 978; for KNLLREIPQVPAFQ [YLR077W 141-154]: 1080.
As to KPAGRPIPPAPTHY [YGR058W 101-114], the normalised SPOT signal, Boehringer light units (BLU); mean over the file's lines of this peptide was 4480.
The molecule KNILKVSPVLPSIL [YMR247C 301-314] returned a normalised SPOT signal, Boehringer light units (BLU); mean over the file's lines of this peptide of 0.
Same read-out and setting: for KNLKKYDPEDPNRR [YPL093W 383-396] the value was 45.8.
The same measure, in the same setting: for KLYYRHRPQKPVRT [YOL164W 144-157] the value was 756.

A further experiment deals with T4, Myo5 SH3 (MYO5_YEAST), Q04439. In words: SPOT array.
On to KQLMKNLPKIPLLN [YDR228C 355-368], for which the normalised SPOT signal, Boehringer light units (BLU); mean over the file's lines of this peptide was found to be 580.
On the same count and under the same terms, for KMSAKNTPKHPVDI [YPL082C 209-222] the value was 307; for KNLLREIPQVPAFQ [YLR077W 141-154], 104.
On the same count and under the same terms, for KPAGRPIPPAPTHY [YGR058W 101-114] the value was 189; for KNILKVSPVLPSIL [YMR247C 301-314], 118; for KNLKKYDPEDPNRR [YPL093W 383-396], 207.
On the same count and under the same terms, the same measure for KLYYRHRPQKPVRT [YOL164W 144-157]: 916.

A further experiment concerns the target T5, Boi2 SH3 (BOI2_YEAST), P39969. The experiment can be described thus: SPOT array.
Take KQLMKNLPKIPLLN [YDR228C 355-368]: the normalised SPOT signal, Boehringer light units (BLU); mean over the file's lines of this peptide is 9.8.
The same measure, in the same setting: for KMSAKNTPKHPVDI [YPL082C 209-222] the value was 42.3; for KNLLREIPQVPAFQ [YLR077W 141-154], 6.5.
In the case of KPAGRPIPPAPTHY [YGR058W 101-114], the normalised SPOT signal, Boehringer light units (BLU); mean over the file's lines of this peptide is 0.
Same read-out and setting: the same measure for KNILKVSPVLPSIL [YMR247C 301-314]: 0.8; for KNLKKYDPEDPNRR [YPL093W 383-396]: 0.
The same measure, in the same setting: for KLYYRHRPQKPVRT [YOL164W 144-157] the value was 27.1.

A further experiment has as its target T6, Yhr016c SH3 (YSC84_YEAST), P32793. The experiment can be described thus: SPOT array.
In turn, KQLMKNLPKIPLLN [YDR228C 355-368] returned a normalised SPOT signal, Boehringer light units (BLU); mean over the file's lines of this peptide of 95.2.
Still for that read-out and setting: the same measure for KMSAKNTPKHPVDI [YPL082C 209-222]: 332; for KNLLREIPQVPAFQ [YLR077W 141-154]: 142; for KPAGRPIPPAPTHY [YGR058W 101-114]: 2860.
Same read-out and setting: the same measure for KNILKVSPVLPSIL [YMR247C 301-314]: 10.1; for KNLKKYDPEDPNRR [YPL093W 383-396]: 71.3; for KLYYRHRPQKPVRT [YOL164W 144-157]: 86.9.
